This data set has as its target T1, Mtr4 ΔSLYL (Saccharomyces cerevisiae, UniProt P47047 1-1069, del1070-1073).
T1 sequence: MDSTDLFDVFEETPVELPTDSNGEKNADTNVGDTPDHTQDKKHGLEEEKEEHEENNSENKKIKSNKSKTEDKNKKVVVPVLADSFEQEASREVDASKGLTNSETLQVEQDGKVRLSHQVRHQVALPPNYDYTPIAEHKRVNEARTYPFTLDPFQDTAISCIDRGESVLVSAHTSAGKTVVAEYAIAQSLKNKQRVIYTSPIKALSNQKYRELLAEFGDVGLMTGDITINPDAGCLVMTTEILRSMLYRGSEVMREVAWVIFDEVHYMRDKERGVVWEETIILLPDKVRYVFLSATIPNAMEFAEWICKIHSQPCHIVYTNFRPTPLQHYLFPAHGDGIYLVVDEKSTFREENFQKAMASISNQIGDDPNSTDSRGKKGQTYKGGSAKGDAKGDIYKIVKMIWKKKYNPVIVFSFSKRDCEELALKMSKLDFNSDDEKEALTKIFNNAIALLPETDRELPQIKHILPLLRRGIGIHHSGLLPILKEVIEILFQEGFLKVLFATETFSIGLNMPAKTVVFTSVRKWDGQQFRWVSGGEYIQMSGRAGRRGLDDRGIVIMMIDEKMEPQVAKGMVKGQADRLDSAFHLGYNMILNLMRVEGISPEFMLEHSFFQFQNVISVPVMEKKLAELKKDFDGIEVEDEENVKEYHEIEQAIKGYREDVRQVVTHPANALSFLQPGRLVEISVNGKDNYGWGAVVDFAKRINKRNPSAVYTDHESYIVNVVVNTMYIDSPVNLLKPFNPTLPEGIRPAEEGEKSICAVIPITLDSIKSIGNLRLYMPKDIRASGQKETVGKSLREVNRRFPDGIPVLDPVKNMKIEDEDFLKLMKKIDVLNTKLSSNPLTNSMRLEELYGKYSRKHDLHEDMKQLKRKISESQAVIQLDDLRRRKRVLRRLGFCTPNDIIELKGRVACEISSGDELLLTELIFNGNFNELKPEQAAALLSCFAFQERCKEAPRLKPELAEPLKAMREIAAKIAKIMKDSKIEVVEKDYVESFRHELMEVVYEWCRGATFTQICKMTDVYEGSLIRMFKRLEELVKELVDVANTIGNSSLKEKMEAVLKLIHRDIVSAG
In words: EMSA. On the technique in general: Mobility shift assays separate free from complexed probe on a gel.

Bounds are passed on as bounds.

B1: ds16UA5 (R16/R22A) (dsRNA)
RNA 1: AGCACCGUAAAGACGC
RNA 2: GCGUCUUUACGGUGCUUAAAAA
B1 displayed a binding signal of more than 5 fold Kd vs WT.
